koff data for one molecule are collected here from article PMC7801428 (2021).

The target of this assay is SARS-CoV-2 RBD (residues V320 to G550, strain Wuhan-Hu-1), C-terminal His tag (SARS-CoV-2, UniProt P0DTC2 320-550). The experiment in a line: BLI.

B1: human-mouse chimeric antibody 3C1 (c3C1) (antibody, V domains shown)
VH: EVQLQESGPSLVKPSQTLSLTCSVTGDSITNGYWNWIRKFPGNKLEYMGYISYSGSTYYSPSLKSRISITRDTSKNQHYLQLNSVTSEDTATYYCASDYHGSKYYFDYWGQGTTLTVSS
VL: DIVMTQSHKFMSTSVGHRVSITCKASQDVGNDVAWYQQKPGQSPKLLIYWASTRHTGVPDRFTGSGSGTDFTLTISNVQSEDLADYFCQQYNRYPYTFGGGTKLEIK
The term koff denotes the rate constant with which the complex falls apart. The low end stands for a long-lived complex, the high end for a short-lived complex. Molecule B1 had a koff of less than 1e-07 s⁻¹.
